According to patent US20240425603A1 (Janssen / Centocor, published 2024):
“And” between values parts separate entries of the source, which are not always exact repeats. Equal values may be shown once.

T1: rat VEGFR1 (soluble antigen of the KinExA and SPR affinity assays) (rat, UniProt P53767 23-758, limits assumed)
T1 sequence (looked up): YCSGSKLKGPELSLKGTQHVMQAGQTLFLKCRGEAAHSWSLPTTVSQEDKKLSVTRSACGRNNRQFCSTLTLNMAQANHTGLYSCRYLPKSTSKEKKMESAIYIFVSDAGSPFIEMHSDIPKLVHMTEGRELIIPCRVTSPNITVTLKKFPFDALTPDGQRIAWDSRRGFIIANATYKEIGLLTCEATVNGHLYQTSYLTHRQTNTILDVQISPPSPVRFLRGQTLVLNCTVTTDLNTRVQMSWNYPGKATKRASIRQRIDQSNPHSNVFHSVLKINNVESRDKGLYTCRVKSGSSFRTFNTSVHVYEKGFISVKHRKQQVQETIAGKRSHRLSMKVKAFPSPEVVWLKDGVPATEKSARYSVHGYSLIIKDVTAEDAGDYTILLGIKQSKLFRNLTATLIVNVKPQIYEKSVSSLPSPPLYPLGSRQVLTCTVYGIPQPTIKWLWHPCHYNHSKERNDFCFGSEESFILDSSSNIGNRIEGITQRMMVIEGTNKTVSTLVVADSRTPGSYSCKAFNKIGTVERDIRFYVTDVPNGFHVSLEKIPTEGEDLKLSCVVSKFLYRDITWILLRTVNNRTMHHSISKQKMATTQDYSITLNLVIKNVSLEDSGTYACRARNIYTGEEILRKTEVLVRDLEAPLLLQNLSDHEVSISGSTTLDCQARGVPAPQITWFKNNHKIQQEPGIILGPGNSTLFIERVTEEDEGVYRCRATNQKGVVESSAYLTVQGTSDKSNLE

T2: NECTIN1 Isoform Gamma (NM_203286.1) (human, UniProt Q15223-3 31-352)
T2 construct: whole, on cells
T2 sequence (looked up): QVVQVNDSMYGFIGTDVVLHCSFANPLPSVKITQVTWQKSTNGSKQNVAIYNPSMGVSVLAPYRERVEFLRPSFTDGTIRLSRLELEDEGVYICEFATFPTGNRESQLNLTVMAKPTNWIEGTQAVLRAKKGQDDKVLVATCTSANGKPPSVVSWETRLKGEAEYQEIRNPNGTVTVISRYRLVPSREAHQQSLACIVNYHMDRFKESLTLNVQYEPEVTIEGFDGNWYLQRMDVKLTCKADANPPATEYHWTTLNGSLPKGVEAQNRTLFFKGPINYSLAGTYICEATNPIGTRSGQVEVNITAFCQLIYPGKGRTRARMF


Tests used:
[1] = molecular target: human VEGFR1 (soluble antigen of the KinExA and SPR affinity assays) (human, UniProt P17948 27-758, limits assumed); experiment: SPR
human VEGFR1 (soluble antigen of the KinExA and SPR affinity assays), sequence (P17948 27-758 limits assumed): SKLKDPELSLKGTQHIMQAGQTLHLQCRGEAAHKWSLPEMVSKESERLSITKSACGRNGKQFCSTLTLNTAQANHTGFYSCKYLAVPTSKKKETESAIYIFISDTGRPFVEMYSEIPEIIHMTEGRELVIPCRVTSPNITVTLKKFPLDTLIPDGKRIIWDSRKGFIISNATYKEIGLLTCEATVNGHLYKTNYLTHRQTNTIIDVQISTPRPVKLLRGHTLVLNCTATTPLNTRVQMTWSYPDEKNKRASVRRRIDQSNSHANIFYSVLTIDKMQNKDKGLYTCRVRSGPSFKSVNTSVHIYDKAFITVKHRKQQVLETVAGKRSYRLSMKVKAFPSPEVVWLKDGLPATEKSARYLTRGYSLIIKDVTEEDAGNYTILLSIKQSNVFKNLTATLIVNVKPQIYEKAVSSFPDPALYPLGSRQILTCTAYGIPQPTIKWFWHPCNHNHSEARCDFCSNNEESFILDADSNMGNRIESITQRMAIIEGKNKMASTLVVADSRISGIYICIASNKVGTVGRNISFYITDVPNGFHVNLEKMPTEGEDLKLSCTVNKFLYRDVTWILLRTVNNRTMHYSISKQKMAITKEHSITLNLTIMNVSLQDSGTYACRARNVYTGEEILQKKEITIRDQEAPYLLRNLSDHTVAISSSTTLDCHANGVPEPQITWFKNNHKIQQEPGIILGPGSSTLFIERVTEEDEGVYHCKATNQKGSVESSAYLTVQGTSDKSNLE

[2] = molecular target: T1, rat VEGFR1 (soluble antigen of the …); experiment: SPR
[3] = molecular target: T2, NECTIN1 Isoform Gamma (NM_203286.1); experiment: Retrogenix cell microarray, fixed HEK293 cells, 2 ug/mL antibody; topology TS
Method: This human cell microarray methodology has been previously described in the literature (Freeth, J. et al, SLAS Discovery, 25 (2), 223-230, 2020). Primary screening was performed on slides arrayed with fixed HEK293 cells with each spot of HEK293 cells expressing either a unique protein from the cell surface-ome, a cell surface tethered human secreted protein, or a heterodimeric human cell surface receptor. In total, 5,528 unique gene products were represented in this primary screen (4,103 human plasma membrane proteins (+some untethered secreted proteins)+1,425 cell surface tethered human secreted proteins). Briefly, slides containing fixed transfected HEK293 cells were overlaid with a solution of test antibody (2 μg/mL), incubated, and washed. Binding was assessed using AlexaFluor647-conjugated anti-human IgG Fc detection antibody and fluorescence quantitation on ImageQuant. […] Located in the ER, off-target binding to CRELD2 was of less concern. Nectin-1, FGFR2, and ISLR, on the other hand, display broad tissue expression profiles. Cross-reactivity to these proteins is undesirable because binding to these targets might have a significant impact on pharmacokinetic and biodistribution profiles of the molecules. This off-target binding was subsequently confirmed by flow cytometry on live HEK293 cells transiently expressing these ‘off-target’ proteins identified in the primary screen.

Binder	Kd [1]	Kd [2]	binding result [3]
VGFB82 (antibody, human IgG1, lambda, L234A L235A, V domains shown, human IgG1 (L234A/L235A/D265S)) VH: EVQLLESGGGLVQPGGSLRLSCEASGFDFSTYAMNWVRQAPGKGLEWVATINSEGTITSHAPAVKGRFTISRDNSKNTAYVQMNSLRAEDSAVYYCSSTTGTTHGMDVWGRGTTVTVSS VL: not shown	0.01 nM and < 0.006 nM	0.6 to 1 nM	
VGFB71 (antibody, human IgG1, lambda, L234A L235A, V domains shown, human IgG1 (L234A/L235A/D265S)) VH: EVQLLESGGGLVQPGGSLRLSCEASGFIFRDYNMNWVRQAPGKGLEWVSIITNDGSSTAYSDSVKGRFTISRDNSKNSLYLQMNSLRAEDTAIYYCVKVYYGMDDWGQGTTVTVSS VL: not shown			binds
